Measured values: paper PMC9545174 (2022)

B1: 11-2G (antibody, V domains shown)
VH: QVQLQQAGPGLVKPSQTLSLTCAISGDSVSNNSAIWNWIRQSPSRGLEWLGRTYYRSKWYNDYAVSVSSRITINPDTSKNQFSLQLNSVTPEDTAVYYCARVDILTGYSFDYWGQGTLVTVSS
VL: EIVLTQSPGTLSLSPGERATLSCRASQSVSSSFLAWYQQKPGQAPRFLIYGESYRATGIPDRFSGSGSGTDFTLTISRLEPEDFAVYYCQQYGSSLTFGGGTKVEIK
B2: 18-4A (antibody, V domains shown)
VH: QVQLQQSGPGLVKPSQTLSLTCAISGDSVSNNSAAWNWIRQSPSRGLEWLGRTYYRSKWYNDYAVSVSSRITINPDTSKNQFSLQLNSVTPEDTAVYYCAREGALLWFGEGAFDYWGQGTLVTVSS
VL: EIVLTQSPGTLSLSPGERATLSCRASHIVSSSYLAWYQQKPGQAPRFLIYGASSRATGIPDRFSGSGSGTDFTLTISRLEPEDFAVYYCQQYAGSPFTFGPGTKVDIK

Target: wildtype SARS-CoV-2 RBD Protein (SARS-CoV-2, UniProt P0DTC2 319-541)
Experiment: SPR

Binder | koff [s⁻¹]
B1 | 0.000568
B2 | 0.000134
